{"source": "paper PMC8373667", "binders": {"B1": {"name": "recombinant Cp-P34 (natural protein)", "chain": "MSGVSRRAVITDPNGVYEGDVNEKGLKHGNGVYKVNTGDVYEGEYSNGLKNGYGVYTWANGDKFEGYYKDDIKWGHGIYRWSNGEVFEGEYVRGVKCGHGIYTWPNGDRFEGEYKDGVKEGFGVYKLATGRIYEGQYSRDMRNGQGTSRYTDGSVYTGEWFDGKEHGHGLLKFSDSSSYEGDFQNGAPNGQGKYTYSNGNYYVGGFKNGLTDGPGSLTFAEDNRVLKANWKDGQVDGDAAIIYPDGGKYTGEVVNGIRQGKGIMTESNGDIFDGEFFRDFRHGEGILTVNGKQKRVKYNMGKKVGLCSC"}}, "biological_target": "JJS-A6/A11 VHH heterodimer, thioredoxin-fused (alpaca (Vicugna pacos))", "assay": "far-Western, overlay or dot blot", "data": [{"binder": "B1", "values": [{"measurement": "percent of VHH binding to the native target blocked by the recombinant protein", "result": 95.2, "unit": "%"}]}]}
